Experimental findings from patent publication US7141393 (KABUSHIKI KAISHA HAYASHIBARA SEIBUTSU KAGAKU KENKYUJO, dated 2006) are described below.

The assay addresses T1, IL-18R protein on the surface of L428 cell (human, UniProt Q13478 19-541).
T1 construct: whole, on cells; Endogenous receptor on cell lines; also called L428 cells; IL-18R protein on the surface of KG-1 cell
T1 sequence (looked up): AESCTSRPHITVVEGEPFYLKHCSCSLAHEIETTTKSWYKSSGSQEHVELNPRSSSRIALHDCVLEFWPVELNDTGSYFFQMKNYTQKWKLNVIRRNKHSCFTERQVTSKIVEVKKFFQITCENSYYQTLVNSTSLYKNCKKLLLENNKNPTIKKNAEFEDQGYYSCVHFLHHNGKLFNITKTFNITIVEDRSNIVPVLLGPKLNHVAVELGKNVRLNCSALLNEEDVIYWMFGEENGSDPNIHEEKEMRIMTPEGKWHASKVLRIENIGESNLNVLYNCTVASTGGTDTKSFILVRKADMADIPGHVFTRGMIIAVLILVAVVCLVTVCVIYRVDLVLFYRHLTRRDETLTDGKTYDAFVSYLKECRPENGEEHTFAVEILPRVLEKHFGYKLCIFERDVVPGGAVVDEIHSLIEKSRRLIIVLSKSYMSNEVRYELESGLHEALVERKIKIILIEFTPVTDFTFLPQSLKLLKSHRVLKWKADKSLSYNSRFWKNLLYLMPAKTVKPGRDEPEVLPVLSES
The assay can be described thus: inhibition of 125I-labelled IL-18 binding to L428 cells (FIG. 1 legend). As for the experimental part:
Subsequently, each cell suspension was added with 200 µl mixture solution (volume ratio 1:1) of dibutylphthalate and diocthylphtalate and centrifuged at 10,000 rpm and 20° C. for 5 minutes, followed by collecting the resultant precipitates containing the cells which were then determined for radioactivity using "MODEL ARC-300", a gamma-ray counter commercialized by Aloka Co., Ltd, Tokyo, Japan.
The levels of radioactivity found in "non-specific binding section" and "whole binding section" were put in Formula 1 together with that found in the sample testing section to calculate percent inhibition.

B1: monoclonal antibody MAb #117-10C (antibody, V domains shown)
VH: EVQLQQSGAELVKPGASVKLSCTTSGFNIKDIYIYWVKQRPEQGLEWVGRIDPANGDTKYGPNFQDKATITADTSSNTAYLQLRSLTSEDTAVYYCARRGNYGAGFGYWGQGTLVTVSA
VL: DIQMTQSPASLSASVGETVTITCRASGNIHNYLAWYQQRQGKSPQILVYNAKTLADGVSSRFSGSGSGTQYSLNINSLQPEDFGTYFCQHFWSTPYTFGGGTKLEIKR
notes: Mouse hybridoma antibody purified from ascites
As for B1, the binding result is on record as “binds”.
